Experimental data from article PMC9061721 (Nature Communications, 2022).

B1: antibody 28-4 (antibody, V domains shown)
VH: EVQLVQSGGGLVQPGGSLGLSCAASGFTFSNYNMNWVRQAPGKGLEWLAYISGSSNTIFYADSVKGRFTISRDNAKNSLHLQMSSLRDEDTAVYYCARDRGCNSNICYVVGYYFYGMDDWGQGTTVTVSS
VL: DIQMTQSPSSVSASVGDRVTITCRASQAITSYLVWYQQKPGKAPKLLIYDAARLESGVPSRFSGSGSGTHFTLTINNLQPEDFATYYCQQADSFPLTFGQGTRLEIK
B2: 3I14 (antibody, V domains shown)
VH: QVQLLESGGGVVQPGRSLRLSCAASGFTFSNYGMHWVRQAPGKGLEWVAIISFDGSKKYYANSVKGRSTISRDNSKNTLSLQMNSLGPEDTALYYCAKLPSPYYFDSRFVWVAASAFHFWGQGILVTVSS
VL: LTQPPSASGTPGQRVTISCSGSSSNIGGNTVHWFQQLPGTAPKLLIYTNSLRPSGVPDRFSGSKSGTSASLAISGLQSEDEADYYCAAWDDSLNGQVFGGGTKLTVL
notes: source: Expi CHO cells, cotransfected, purified (Protein A Agarose)
B3: antibody 28-6 (antibody, V domains shown)
VH: EVQLVQSGGGLAQPGGSLRLSCTASGFAFSSYGMNWVRQTPGKGLEWVSYISSGSTIIDYAGSVKGRFTISRDNAKNSLHLEMNSLRDEDTAVYYCARDRGCSSTTCYVIGYYYYGMDVWGQGTTVTVSS
VL: DIQMTQSPSSVSASVGDRVTITCRASQGINRRLVWYQQKPGKVPKLLIYDASSLQCGVPSRFSGSGSGTDFTITISSLQPEDFATYYCQQADSFPLTFGQGTRLEIK
B4: antibody 28-2 (antibody, V domains shown)
VH: EVQLVESGGGLVQPGGSLRLSCAASGFTFSTYSMNWVRQAPGKGLEWLSYISTSSSTIDYADSVKGRFTISRDNAKNSLYLQMNSLRDEDTAVYYCARDRGCSSTNCYVVGYYFYGMDVWGQGTTVTVSS
VL: DIQMIQSPSSVSASVGDRVTITCRASQGISSYLAWYQQKPGKAPKLLIYAASRLQSGVPSRFSGSGSGTDFTLTISGLQPEDFATYHCQQANSFPLTFGQGTRLEIK

Assays:
[1] = target: recombinant human insulin (Homo sapiens, UniProt P01308); assay: ELISA; settings: both partners purified
Sequence of recombinant human insulin (P01308 whole entry, looked up): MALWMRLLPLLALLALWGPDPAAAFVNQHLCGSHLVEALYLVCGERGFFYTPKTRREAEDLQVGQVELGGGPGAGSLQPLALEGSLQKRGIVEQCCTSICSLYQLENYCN

[2] = target: T1, H3 peptide 36-57HA2 (wild type) (Influenza A virus A/Hong Kong/1/1968 …, UniProt Q91MA7, strain); assay: ELISA; settings: both partners purified
T1 construct: source: synthetic peptide

Binder | binding result [1] | binding result [2]
B1 | no binding | 
B2 |  | binds
B3 | no binding | 
B4 | no binding | 
